Legend:
[1] = biological target: human Nogo-A d20plus region (human aa position 543-866), recombinantly produced in E. coli (human) (UniProt Q9NQC3); test: ELISA, coated d20plus (human, as read from the context), internal standard
rat Nogo-A (rat) = rat Nogo-A (rat) (UniProt Q9JK11); test: cell-based or functional assay
rat Nogo-A (rat), sequence (Q9JK11 whole entry): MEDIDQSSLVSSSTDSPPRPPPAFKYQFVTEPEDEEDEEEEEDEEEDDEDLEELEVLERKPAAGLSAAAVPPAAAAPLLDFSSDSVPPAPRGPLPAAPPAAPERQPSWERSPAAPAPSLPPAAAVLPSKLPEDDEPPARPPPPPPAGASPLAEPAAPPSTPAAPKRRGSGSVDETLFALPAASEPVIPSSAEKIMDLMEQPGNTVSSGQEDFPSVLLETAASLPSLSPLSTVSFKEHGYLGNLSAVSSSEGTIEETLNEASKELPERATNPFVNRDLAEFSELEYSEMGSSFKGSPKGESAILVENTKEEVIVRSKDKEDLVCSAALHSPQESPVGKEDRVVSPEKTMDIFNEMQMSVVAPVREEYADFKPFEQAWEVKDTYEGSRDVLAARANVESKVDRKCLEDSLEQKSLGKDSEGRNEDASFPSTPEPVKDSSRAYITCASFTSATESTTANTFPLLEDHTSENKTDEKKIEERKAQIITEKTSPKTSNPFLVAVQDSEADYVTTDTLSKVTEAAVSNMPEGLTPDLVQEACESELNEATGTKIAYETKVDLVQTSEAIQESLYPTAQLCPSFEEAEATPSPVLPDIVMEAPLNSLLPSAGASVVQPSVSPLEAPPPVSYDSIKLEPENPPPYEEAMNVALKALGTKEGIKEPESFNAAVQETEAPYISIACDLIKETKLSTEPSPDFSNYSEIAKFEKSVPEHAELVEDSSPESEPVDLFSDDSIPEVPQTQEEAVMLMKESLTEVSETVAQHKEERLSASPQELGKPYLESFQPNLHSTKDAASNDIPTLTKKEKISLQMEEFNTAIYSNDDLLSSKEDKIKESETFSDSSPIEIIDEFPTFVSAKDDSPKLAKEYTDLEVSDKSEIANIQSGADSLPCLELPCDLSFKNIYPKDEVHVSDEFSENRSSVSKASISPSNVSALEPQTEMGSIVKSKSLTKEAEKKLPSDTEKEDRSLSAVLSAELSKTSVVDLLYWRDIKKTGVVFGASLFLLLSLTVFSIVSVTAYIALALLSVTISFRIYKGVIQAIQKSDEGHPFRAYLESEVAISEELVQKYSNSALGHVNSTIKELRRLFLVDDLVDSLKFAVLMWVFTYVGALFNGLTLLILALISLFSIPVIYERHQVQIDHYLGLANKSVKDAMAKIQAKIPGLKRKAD

human Nogo-A d20plus region (human aa position 543-866), recombinantly produced in E. coli (human), sequence (Q9NQC3 543-866 limits assumed): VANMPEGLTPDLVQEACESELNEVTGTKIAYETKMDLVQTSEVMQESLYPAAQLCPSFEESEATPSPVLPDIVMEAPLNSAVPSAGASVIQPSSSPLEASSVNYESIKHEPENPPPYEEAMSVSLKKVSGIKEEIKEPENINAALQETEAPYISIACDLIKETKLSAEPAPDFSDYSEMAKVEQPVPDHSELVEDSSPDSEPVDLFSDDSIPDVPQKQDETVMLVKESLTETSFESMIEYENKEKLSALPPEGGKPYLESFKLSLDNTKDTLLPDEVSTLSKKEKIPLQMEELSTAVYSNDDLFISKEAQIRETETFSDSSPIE

Question: How did the EC50 [1] turn out when “murine monoclonal anti-Nogo-A antibody 11C7” was run?
Answer: 0.14 nM

Question: And the IC50 for stimulating neurite outgrowth of N1E-115 cells in presence of rat CNS extract (rat Nogo-A (rat))?
Answer: 19.3 nM
